Target: highest binding amyloid (in vitro)
Assay: calculated from in vitro binding of the antibody to amyloid; method not described

B1: CAEL-101 antibody having a heavy chain variable domain (VH) as set forth in SEQ ID NO:1 and a light chain variable domain (VL) as set forth in SEQ ID NO:2 (antibody, human IgG1, V domains shown)
VH: QVQLKESGPGLVAPSQSLSITCTVSGFSLSSYGVSWVRQPPGKGLEWLGVIWGDGSTNYHPNLMSRLSISKDISKSQVLFKLNSLQTDDTATYYCVTLDYWGQGTSVTVSS
VL: DVVMTQTPLSLPVSLGDQASISCRSSQSLVHRNGNTYLHWYLQKPGQSPKLLIYKVSNRFSGVPDRFSGSGSGTDFTLKISRVEAEDLGLYFCFQTTYVPNTFGGGTKLEIK
  Michaelis-Menton EC 90 (calculated): 36.5 µg/mL
